No end group written: not given here.
Target: T1, biotinylated ALFA-tag peptide (WT) (synthetic construct, also: biotin with double DoA linker, end not given here)
T1 chain: SRLEEELRRRLTE
Assay: BLI

Kd: 0.165 ± 0.002 nM
B1: ALFA nanobody (NbALFA) (VHH)
VHH: EVQLQESGGGLVQPGGSLRLSCTASGVTISALNAMAMGWYRQAPGERRVMVAAVSERGNAMYRESVQGRFTVTRDFTNKMVSLQMDNLKPEDTAVYYCHVLEDRVDSFHDYWGQGTQVTVSS

Source: article doi:10.1101/2025.10.28.685015 (bioRxiv, 2025)
